In PMC8154254, “On the Track of Long-Range Electron Transfer in B-Type Dye-Decolorizing Peroxidases: Identification of a Tyrosyl Radical by Computational Prediction and Electron Paramagnetic Resonance Spectroscopy” (Biochemistry, 2021) one finds Km, kcat and kcat/Km data, which are given here for one protein.

Substrate in the series: CCn1c(=NN=c2sc3cc(S(=O)(=O)O)ccc3n2CC)sc2cc(S(=O)(=O)O)ccc21
Put plainly: purified protein. The series is classed as biochemical, Klebsiella pneumoniae. The note with it: 40 μM H2O2, 100 nM enzyme, 50 mM phosphate-citrate pH 5.0, room temperature.

In general, Km refers to the substrate concentration at which the rate is half of its maximum. In general, kcat refers to the maximal rate divided by the concentration of active sites. As a reminder, the kcat/Km is the second-order rate constant that governs catalysis at low substrate concentration.

B1: KpDyP (B-type Klebsiella pneumoniae dye-decolorizing peroxidase) (Klebsiella pneumoniae) (protein)
chain: MSQVQSGILPEHCRAAIWIEANLKGDVNALREASKIFVDNVATFQAKFPDAKLGAVVAFGNNVWRQLSGGEGADELKDFPVYGKGLAPSTQYDLLIHILSARHEVNFSVAQAALAAFGDAIDVKEEIHGFRWVEERDLSGFVDGTENPAGEETRREVAVIKDGVDAGGSYVFVQRWEHNLKQLNRMSVPDQEMMIGRTKDANEEIDGDERPVTSHLSRVDLKEDGKGLKIVRQSLPYGTASGTHGLYFCAYCARLYNIEQQLLSMFGDTDGKRDAMLRFTKPVTGGYYFAPSLERIQAL
notes: recombinant from E. coli BL21 (DE3) Tuner; dimer
Take B1: the Km was 20.5 ± 1.9 µM, the kcat came out at 3.1 ± 0.1 s⁻¹ and the kcat/Km stood at 150000 M⁻¹ s⁻¹.
